Test results reported in IntAct's records for PubMed 23290633.

B1: Magnesium transporter NIPA4 (Homo sapiens), Q0D2K0 (parent)
chain: MELRVSNTSCENGSLLHLYCSSQEVLCQIVNDLSPEVPSNATFHSWQERIRQNYGFYIGLGLAFLSSFLIGSSVILKKKGLLRLVATGATRAVDGGFGYLKDAMWWAGFLTMAAGEVANFGAYAFAPATVVTPLGALSVLISAILSSYFLRESLNLLGKLGCVICVAGSTVMVIHAPEEEKVTTIMEMASKMKDTGFIVFAVLLLVSCLILIFVIAPRYGQRNILIYIIICSVIGAFSVAAVKGLGITIKNFFQGLPVVRHPLPYILSLILALSLSTQVNFLNRALDIFNTSLVFPIYYVFFTTVVVTSSIILFKEWYSMSAVDIAGTLSGFVTIILGVFMLHAFKDLDISCASLPHMHKNPPPSPAPEPTVIRLEDKNVLVDNIELASTSSPEEKPKVFIIHS

Variants of: B1
Details: with SLC27A4, Q6P1M0
SLC27A4, Q6P1M0, sequence (Q6P1M0 whole entry, looked up): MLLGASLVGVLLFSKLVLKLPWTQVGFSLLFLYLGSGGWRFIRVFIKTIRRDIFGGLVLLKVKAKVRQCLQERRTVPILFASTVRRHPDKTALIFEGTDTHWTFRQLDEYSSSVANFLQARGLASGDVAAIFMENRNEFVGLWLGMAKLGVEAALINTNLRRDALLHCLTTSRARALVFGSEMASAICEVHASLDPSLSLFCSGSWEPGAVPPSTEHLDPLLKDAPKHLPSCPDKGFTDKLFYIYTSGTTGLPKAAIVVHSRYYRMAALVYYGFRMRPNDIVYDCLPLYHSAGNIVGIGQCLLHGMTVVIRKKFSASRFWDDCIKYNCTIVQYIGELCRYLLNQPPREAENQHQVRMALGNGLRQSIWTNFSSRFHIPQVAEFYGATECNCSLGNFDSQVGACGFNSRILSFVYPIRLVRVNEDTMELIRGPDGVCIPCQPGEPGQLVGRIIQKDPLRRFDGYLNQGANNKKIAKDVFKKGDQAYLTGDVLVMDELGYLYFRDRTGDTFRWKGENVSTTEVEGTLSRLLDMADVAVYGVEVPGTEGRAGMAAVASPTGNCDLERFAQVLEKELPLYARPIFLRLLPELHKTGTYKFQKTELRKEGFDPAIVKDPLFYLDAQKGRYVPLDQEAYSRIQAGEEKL

| Variant | effect of a mutation on the interaction |
| --- | --- |
| A114D | decreasing interaction |
